One block for each molecule: values may come before it.
What was measured:
Cphy1178(20–462) [1] = biological target: T1, Cphy1178(20–462) (Lachnoclostridium phytofermentans, UniProt A9KN57); experiment: LC-MS; assay type: biochemical; settings: 100 µM CoA, 75 µM NAD+, 10 mM propionaldehyde, 100 mM KCl, pH 8.0, room temperature
T1 construct: gene Cphy_1178; E. coli BL21(DE3), pET28a; tag state not clearly stated; tetramer 4 x 47,452 Da; also misprinted as 20-426
T1 sequence (A9KN57 20-462): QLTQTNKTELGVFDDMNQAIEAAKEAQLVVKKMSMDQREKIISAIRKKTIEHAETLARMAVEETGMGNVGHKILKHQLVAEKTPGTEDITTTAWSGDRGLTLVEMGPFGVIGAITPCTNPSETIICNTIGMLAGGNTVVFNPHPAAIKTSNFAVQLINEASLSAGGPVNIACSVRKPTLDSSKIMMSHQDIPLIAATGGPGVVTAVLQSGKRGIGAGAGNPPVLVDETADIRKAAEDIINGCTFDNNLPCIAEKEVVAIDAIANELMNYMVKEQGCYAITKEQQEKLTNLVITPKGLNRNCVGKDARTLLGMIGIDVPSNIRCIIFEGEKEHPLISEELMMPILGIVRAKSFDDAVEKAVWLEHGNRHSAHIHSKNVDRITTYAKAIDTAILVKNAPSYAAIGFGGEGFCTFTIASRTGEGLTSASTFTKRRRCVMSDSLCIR

Cphy1178(20–462) [2] = biological target: T1, Cphy1178(20–462); experiment: NADH formation; assay type: biochemical; settings: substrate inhibition; 0.66 mM NAD+, 100 mM KCl, 10 mM 2-mercaptoethanol, no CoA, pH 8.0, 21 °C
Cphy1178(20–462) [3] = biological target: T1, Cphy1178(20–462); experiment: LC-MS detection of propionyl-CoA; assay type: biochemical; settings: 100 µM CoA, 75 µM NAD+, 10 mM propionaldehyde, 100 mM KCl, pH 8.0, room temperature
[4] = biological target: Cphy1178(20–462), acylating aldehyde dehydrogenase from the Clostridium phytofermentans fucose/rhamnose utilisation BMC, N-terminal truncation (Clostridium phytofermentans); experiment: native MS; nano-ESI ion-mobility MS (Synapt G2); protein buffer-exchanged into 100 mM ammonium acetate pH 7.0; tetramer
[5] = biological target: Cphy1178(20–462), acylating aldehyde dehydrogenase from the Clostridium phytofermentans fucose/rhamnose utilisation BMC, N-terminal truncation (Clostridium phytofermentans); experiment: crystal structure; X-ray, space group I 41 2 2, one chain in the asymmetric unit; tetramer generated by crystal symmetry (D2); crystals from 0.1 M sodium acetate pH 4.7, 1.8 M ammonium sulphate, soaked with 10 mM NAD+
[6] = biological target: Cphy1178(20–462), acylating aldehyde dehydrogenase from the Clostridium phytofermentans fucose/rhamnose utilisation BMC, N-terminal truncation (Clostridium phytofermentans); experiment: native MS; solution-phase disassembly: tetramer disrupted by addition of 40% methanol (v/v) prior to MS analysis; tetramer to dimers and monomers
purified protein [7] = substrate: CCCCCC=O; experiment: purified protein; settings: 0.66 mM NAD+, 100 mM KCl, 10 mM 2-mercaptoethanol, no CoA, pH 8.0, 21 °C
purified protein [8] = substrate: CC=O; experiment: purified protein; assay type: biochemical, Lachnoclostridium phytofermentans; settings: 0.66 mM NAD+, 100 mM KCl, 10 mM 2-mercaptoethanol, no CoA, pH 8.0, 21 °C
purified protein [9] = substrate: CCCCC=O; experiment: purified protein; assay type: biochemical, Lachnoclostridium phytofermentans; settings: 0.66 mM NAD+, 100 mM KCl, 10 mM 2-mercaptoethanol, no CoA, pH 8.0, 21 °C
purified protein [10] = substrate: CCCC=O; experiment: purified protein; assay type: biochemical, Lachnoclostridium phytofermentans; settings: 0.66 mM NAD+, 100 mM KCl, 10 mM 2-mercaptoethanol, no CoA, pH 8.0, 21 °C
purified protein [11] = substrate: CCC=O; experiment: purified protein; assay type: biochemical, Lachnoclostridium phytofermentans; settings: 0.66 mM NAD+, 100 mM KCl, 10 mM 2-mercaptoethanol, no CoA, pH 8.0, 21 °C

Molecule: CCC(=O)SCCNC(=O)CCNC(=O)[C@H](O)C(C)(C)COP(=O)(O)OP(=O)(O)OC[C@H]1O[C@@H](n2cnc3c(N)ncnc32)[C@H](O)[C@@H]1OP(=O)(O)O [propionyl-CoA]
LC-MS (Cphy1178(20–462) [1]): LC-MS analysis confirmed the presence of the propionyl-CoA product

Ki (Cphy1178(20–462) [2]): 12.61 ± 0.46 mM
Molecule: CCCCC=O [Pentanaldehyde]

Molecule: CC(C)(COP(=O)(O)OP(=O)(O)OC[C@H]1O[C@@H](n2cnc3c(N)ncnc32)[C@H](O)[C@@H]1OP(=O)(O)O)[C@@H](O)C(=O)NCCC(=O)NCCS [CoA]
LC-MS detection of propionyl-CoA (Cphy1178(20–462) [3]): reaction mixtures containing NAD^+ and CoA

Ki (Cphy1178(20–462) [2]): 17.31 ± 0.46 mM
Molecule: CCC=O [Propionaldehyde]

Ki (Cphy1178(20–462) [2]): 23.52 ± 1.28 mM
Molecule: CCCCCC=O [Hexanaldehyde]

stoichiometry N [4]: 4
stoichiometry N [5]: 4
stoichiometry N [6]: 2
Molecule: Cphy1178(20–462), acylating aldehyde dehydrogenase from the Clostridium phytofermentans fucose/rhamnose utilisation BMC, N-terminal truncation (enzyme)

B1: Cphy1178(20–462) (Lachnoclostridium phytofermentans ISDg) (protein)
chain: T1 sequence (A9KN57 20-462)
notes: E. coli BL21(DE3), pET28a; tag state not clearly stated; tetramer 4 x 47,452 Da; also misprinted as 20-426
Km (purified protein [7]): 2900 ± 100 µM
kcat (purified protein [7]): 5.61 s⁻¹
kcat/Km (purified protein [7]): 1930 M⁻¹ s⁻¹
Km (purified protein [8]): 5160 ± 100 µM
kcat (purified protein [8]): 1.62 ± 0.02 s⁻¹
kcat/Km (purified protein [8]): 310 M⁻¹ s⁻¹
Km (purified protein [9]): 2200 ± 700 µM
kcat (purified protein [9]): 5.44 ± 0.1 s⁻¹
kcat/Km (purified protein [9]): 2470 M⁻¹ s⁻¹
Km (purified protein [10]): 1740 ± 70 µM
kcat (purified protein [10]): 3.44 ± 0.7 s⁻¹
kcat/Km (purified protein [10]): 1980 M⁻¹ s⁻¹
Km (purified protein [11]): 820 ± 20 µM
kcat (purified protein [11]): 3.45 ± 0.03 s⁻¹
kcat/Km (purified protein [11]): 4210 M⁻¹ s⁻¹

Source: PMC4762007, “Insight into Coenzyme A cofactor binding and the mechanism of acyl-transfer in an acylating aldehyde dehydrogenase from Clostridium phytofermentans” (Scientific Reports, 2016)
